Reference: US20250360126

Tests used:
[1] = system: T1, NPM2 (embryonic NPM1 paralog)
T1 sequence (Q86SE8 1-214, species assumed, looked up): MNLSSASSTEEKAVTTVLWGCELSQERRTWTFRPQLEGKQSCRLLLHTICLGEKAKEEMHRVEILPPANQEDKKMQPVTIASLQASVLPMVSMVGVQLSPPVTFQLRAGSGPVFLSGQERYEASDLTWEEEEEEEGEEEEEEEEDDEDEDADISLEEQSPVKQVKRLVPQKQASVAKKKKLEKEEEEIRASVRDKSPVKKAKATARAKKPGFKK

[2] = system: Nap1 histone chaperone (a TTLL4 substrate protein)
[3] = target: Nucleophosmin NPM1, wild type, full-length (UniProt P06748)
Chain of Nucleophosmin NPM1, wild type, full-length (P06748 whole entry): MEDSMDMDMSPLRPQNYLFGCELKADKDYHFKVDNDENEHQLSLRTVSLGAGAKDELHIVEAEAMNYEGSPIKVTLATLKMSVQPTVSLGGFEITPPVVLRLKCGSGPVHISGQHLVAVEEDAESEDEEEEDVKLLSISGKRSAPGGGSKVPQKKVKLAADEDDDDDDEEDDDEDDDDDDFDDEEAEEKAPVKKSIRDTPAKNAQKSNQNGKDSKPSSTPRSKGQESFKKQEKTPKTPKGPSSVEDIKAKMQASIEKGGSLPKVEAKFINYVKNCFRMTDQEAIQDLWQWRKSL

active human TTLL4 enzyme (Tubulin-Tyrosine Ligase Like 4), recombinant
in vitro glutamate-glutamylation, immunoblot time course (FIG. 10) (NPM1c (AML-mutant NPM1)): AML-mutant NPM1c is a better in vitro substrate for TTLL4 than the wildtype NPM1
in vitro glutamate-glutamylation [1]: capable of catalyzing in vitro glutamate-glutamylation of Npm1, Npm2, and Nap1 histone chaperone substrates (not shown)
in vitro glutamate-glutamylation [2]: capable of catalyzing in vitro glutamate-glutamylation of Npm1, Npm2, and Nap1 histone chaperone substrates (not shown)
kinase reaction, 32P-labeled phosphorylation (FIG. 7B) [2]: TTLL4 dependent 32P-labeled phosphorylation of Nap1 (a TTLL4 substrate protein)
glutamate-glutamylation of substrate (FIG. 2B) [3]: TTLL4 glutamylates full-length NPM1
in vitro glutamate-glutamylation [3]: capable of catalyzing in vitro glutamate-glutamylation of Npm1, Npm2, and Nap1 histone chaperone substrates (not shown)
in vitro glutamate-glutamylation, immunoblot time course (FIG. 10) [3]: AML-mutant NPM1c is a better in vitro substrate for TTLL4 than the wildtype NPM1
